According to the DeepSol protein solubility set:

Experiment: soluble on expression in E. coli; label from the status in PepcDB or PDB records

Row | Sequence | soluble on expression in E. coli
1 | MAHHHHHHMCFVARHKPALISGEAVVWLMERITGEELDVRSLENLCSAVVHLPVAVRTALRQELMEFVAFLSLQARELLQQVPAAQGGLSGCSDADAIQYFVSHVLELTVMLRTYPDLQWPPEFLAAVDACAASVEPLQEALLSAESSPVGLMVRLLEAPTGECKRVGLAMLREAANQCQSFATLQTFRFLLLMGDHGLQDVGTSRYLRDQFAKTAADVPPVQLSVALRCLGVATAGAATQGASGAGELRATVEGTAGNADLDDELERERLDAFLQFCVEVSRKHLSQGAPLRCVLATTESLHRLGCRDTAFFADVAAYIAAKHAAAPAERESADTATAVCAALGEDLLGEYPAVREFLLDVAQRGVRGESAMSPTQWMNLHDPSNALTPLTEQQQESWDIVEEMVRTRSDDVDALVRLAEKYMELLPFARPDDHKYFFGVCEEKVLKQDKLLKKCLDTIVDCGAVSRLSAQTIASILHSLAAIRFEYFASVKRFTSSISDEQWLLMEAAPLVQILTGMDKLSLRTPAVLRRIGGRLTEICRFLTPLDTAQAIHALQALGHNDAKLLGKLAAHAAALARRFDEASMAVLFSTPSIHRLMSTPEVARPLLLQASAKIQSQHRREKISAWVRRSGLPRELIDESTRRLQVTSGDARSSEVHLRLT | not soluble
2 | MAHHHHHHMDKDKDKSKNTPLLYQDTMNDLGDGLQNMDTLRLNRNGNTGNGNKNKTNGSKGVKGEYEKKKETNGHDDYVKESLNRMLESHIDQYFKGLDYYKNNPKCKIDPKIHLHGSEEIENYIVKEKIFVTTYFQYIDVYENAINVDEDLEKEEIVYVEVPKYVTKYKPKIVTNIIEKTIEIPSGEEIKQPKYNTVNVPYVIPNIVENEILVVLKKIIQPEIEITNEELEIEVEKYIPRLVPVNVYVPRYFGISAKAKGEPEESVRYVDLTQDQIDELMKELNPHLNELKVFNETQLKRMDEYMRESQMQARAHNFEPPQPQLITYDESGHCQSYDYSEFHRFKETCIKELTH | not soluble
3 | MAHHHHHHMDQLVYYVMVQHNSIQPIIVRQPPTVVIHTQPNPPITLDLPPQNIILKNDEPQPIIVRQQNPNIIVQKSGNEFSENPNYALSLNQQMKEITSMTSPSAAIPHGGIAQVGIPHVTNEPLLGVTTPEMNELTDPAYIYSNQYITTQNKSQPMNNMYFTSVPLNNDGSYSPYNMTLYANKREDYTKSTPSKY | not soluble
4 | MAHHHHHHMDSIVLPGEALGSCDAYVSGENTYSLQKEVRSAILGRRQLTTNGDGKQVISVANTKEFIPLPQVGDLVTCKVYRVTFNLIYCNIILLNSKAVRNSFRAFINKSDIHVYEGELGDNFECFKQGDIIRAKVLSVAQHGSYKLSTVGSDLGVILALSDGGERKRGKKQKKTKKQKKKKKKKEP | not soluble
5 | MAHHHHHHMDSLYFIGKAQFHQLATHISLYHEDMSDGYKHLSTDAVMAVGLKPHKFTYWNVPMMSGYLGKTVPLDIHGGYVMIDEEKVMPMATSYGMLRYALLTSAVRAKEGGRWRYDFMTMNSTLAIGTAAGLGLLSFGRQRIGWIRRHPIGSVMASFVACLTTTVIARQGIKALGIGIVQAQNSHKRALNCLHCVDCLEDVNTYTLKQIEELKAQQIPQQAGMPPPPEEYVRRFKKGVEMQCRLLETDMEEVRLIRKWAGASLCDVHQHLRDDPMGYKEPHGLVLLASDRARAAERPPLATMPDDKKGIRPAKS | not soluble
6 | MAHHHHHHMEAKFLKLRQEREEQRRHRSKKTGAITLQRQQYEAEAELLEAEVMQLLQEGNVTESQQRIDALRTLVQDTSNSISLTAHEMAKANVILARLQQRVDEKCSGAAPKKFKFSSRLKAKPTSDAEPATPSFSPTGTSDTNEATATATVPIAGTVSSTNGFGNVYGPSTGTDLFISHSKGVFINGCADCAIYCLPIAGSAFLSNCTNCRVYVACHQLRLKGCTNLDLYVWCASTPIIEECDAMRFGPYRCWVGLLSSCTEDGKTYATHAEWVSRVGEIEDTARTEQNYVKVDDFQWVKKRASPHWCVLAREEERASTTVFGPATLPSSSTAHSTVAADH | not soluble
7 | MAHHHHHHMEDAFAGSCVQSLFEPKADLSLCVNKSIKLFLKEVPIPPADSVDRADEQNSTDAKKEQRESALSENLSLLNGYAYFNRIKSNINLLHTELHGIKRDFLFQKKQTKKNIQKLKIVRKQNKIYQSVLQEIKKDRRRKETYELLCTEIQKLEEVNYLNKKQQMEKRDIEDLQQKMKDIENAIRINDENIQRTIQQISDIVSTNLQP | not soluble
8 | MAHHHHHHMEGVSNILSIAGSDSCGGAGIQADIKTAMGLGCHCCTALVVLTAQNTKEVKRIVEIEEAFIVDQLDSIFADVTIDVVKLGVLYSKKIISLVSQYIVQMNKKRGKKLLVVFDPVFVSSSGCLLVENLEYIKFALDLICPISCIITPNFYECKVILQALDCQMDLSKANMTELCKLVTRMLDINACLLKSCNVGENSAEENEVYAVDHLCIRKVGSIPEGEVIQRDAGELGQSAPGGVTYLYDVYKLRSKRKPGVDVHGTGCTLSTAIACYLAKKHNILQSCIESKKYIYNCIRYAYPFGSKSQGLNHLKASQELPTFTDLEVIPIVQDSP | soluble
9 | MAHHHHHHMELGTPNVLPGYDASKSANGSENAKTIISDVNANYNAERKNHTVTHNDEKEGTTHDGGGDEPPQTHSNTERDKEDKIKFEKKKKKSDKLKKEREKEIVVAYWLKGIVKILNAGLKNGDIKGSNFIGKKIAEVLKKVVEISHWNNVYDLIEIIKYLGKEIIRNNKMYFIIPNIIRRVLTIIRTEHFKQLYLYNNNYVDNLNKNNNFLVDKNTNKCINSKYVYEREIKNFEQSFSFYFENNSKKNTYHIPATNTLRHSIIEGITELIADIDTSWGETEQRTSYDLFMENDVILTMGYSVGVEKFLKNINKKKDGISVIVVGGDINRNGFRMAQLLSEDGVDTTYISDSAVFAVIPKVTKVVLGSVAVSSSGGVITKIGGYNIACSAQFNSKPVTIVLPLFKLINDPFYDPIRQNELQPGPSMIYNDADNLYVRIPKYDYIPEHLITLYITEIGPVDSFQLYNITKRTYHPDDLDLSFD | not soluble
10 | MAHHHHHHMERCLLLSAWPTLHEREVKEASEFVRSSSVSRRDSMALSLNHAGAFPSASHSGTHRGSFATMLATGSRAASPHPHDPCATPPPGIRCLDLPEHYHARDTRKNKSAVNDYDEDEDDGAYRSGSCSRCLSRASSFSLGAGGMTPLAWKMSSSMNGESPSCRATESPCSAFAQEHLVATAVMERRVNRMAGGISFQGMTPMDALLAGRLAPPDRREEQQELDESGDARGVSPPFRERSMAPAELVAERTGRQQPR | not soluble
11 | MAHHHHHHMFAIRCPASMLWHPSVHHSLLLLRALEQPHTLLLDTHTASRGRLSVPLLSECAREVRIQTPPGHHEFDSPAGASTERSVLLYRAEDLLHIVNRPLSAGHDLGAACPTQSGVFASLLEYLEASTVSSHVISAIDALLVSLNTGDMETMRQTHACLVELIERLEASITDESLSEAHRTDQKEPLSTWPLFCTLQFLIEEGGMLTSAFPRTNKAYTRLCHSSKAVALHRRLVQRTVEQLLDVGSSANADVSQGARVEMNYPAKGFLREVQRHLASYNRSMEERTTDGVSGEKGPLNSRASGGRLGIQAVQARLPWTLQARPLRKG | soluble
12 | MAHHHHHHMFKFVSSIGDAAYKAASKTGLAAGSEQPPYPCALPLQVIEDCEDTETTERVLNDTYAAVRDLLSDDLPLLHSTISDVQAHKPFKLVDFTDREGDIRLFTRPHVGSYNFARVTLTLDNVSPAKVLTFMHAQSLEARNRYSSNLCQYDVIARNPELPAQYIGNDNDHLEELCRMGIRDWHVEYNRYSAPPPVTARDFVYLVEKRYAPEQRCYYIYGTSVDYRDTAGIAIEKDNCVRGAVVFGWRFQHVGRKTYCTYVSCMSPNGWAPTFIVGWMKTAIAKELQNARRVLYQDVPSCHAAGASSEYAKGALAAYDAPITSCRQNKPTRDHSSSKSSAQKLGNAMEHEERRLLEDEKPIVFE | soluble
13 | MAHHHHHHMFQRARFLLLPIDDVLPAGSRWSRVTALPTSHAHPSGASRASRTGPVTANTTSALPPTPYITFIPTLHVASVKFYDAVLDYMRESVEKNSNVVVLLEGICDNKEGRIQQMDEYMQISRSEELRAAMLEKAEKNTLYNDETIRTICDELAVNYDVLSRELETVRLQECYLRPKMAALMGKNLCNEADIDMEEVEALMLEGDNNDHSGSYGACGSGSVVPITSIGSHPAVRRSREMKVARKARATCVDWLKHGVAGEVILPWGIYHVEGIQRNVLSLNAQDEGIVFVESGNDIRHVPFGIHRDLLVL | not soluble
14 | MAHHHHHHMGDAENNENDKKCLWVPDEEVTNCYSCNAFFNVRVRKHHCRACGNVFCSNCSDNKIKISEYSYAEKVRVCDRCFMERSSPQTLLLQEDLGARKQINQDLKKALSEKMAIVERFKTFLLEFDSEILNNSDHADGSNDVMSLLKRGEKGLKDLNDKIRNYDSIIENQKKELEHLKREKEQKTELNKILHLRNHEIQQKNMNIKNLVKEKNELTLVKEESEGIIHSYKKQVEKLIIRCNQLELEKKRKNYTDQSSNYSFTNSSSQSYMMNSYRLPQNEMSVSYTVAQGPSDDPEEENCCNYCQRRVCSIM | not soluble
15 | MAHHHHHHMGGYIGYNLVYNQQASVSQALWSREDEDVAPVSMPVRPRVALVNMTENLRSCAMGGLRAWLDVADEVELEFPTVTFVEDDEAGAIAGLAAEVRRAALFAWVELKERHEMDAPFGVKPLCCVVFRSITEVDGQALDAWDVQEVELRRWHGKRFVTRHCVGASVDGKRAMVLMHDVEGVIDVGPAAALAGGRVSDCGALVRQYGAPSTASFRRWKLSAEAQSSSTPVQPPAKSLQGLGIRLRDGQRCQLWQSPLHIFAALGAVLRYNRADAAVYPNHITTPVPVSQSASAVSASLWGCVKEWALRCTPTLLHWYTARQAERMERQRQLSSTFVVVVRLAEERAAVTSDVLRVVEEHVAEWMRDMNGASPMKTSLSTANRVCVRDAAARPEELMAAPTIQVDLTDTVCSVIAAEWLLIRLTSLFAALGLEPALAQLVAVPGPQASTSLLYPTPNTAHLRHLWLSRSATTSSSTITDNDAKSPRVTWSGRTTQGEHIAGCAATMPIEAGYVVSEHYFSAF | not soluble
16 | MAHHHHHHMGKRDLQKEKQQELAAIWGSEVQGDARFPKRRRAAQKQGLGAVENNDDVDTDVLSDIVSDAGSITSKHSDTAKKETRKTAKKKSTNYRLHCFVEPGTELNAVRTVFEAYEPKVEIRTAQKGNLLNKSQFAVLTFRNKAMALHAVKKLDGTNQRDLLGVSSLKLNLMLTRQQSKIARKTFNRKIRQEKERNQLMEEQADLAFIRNFLKQHSGAKKDKQNGKALSLS | soluble
17 | MAHHHHHHMGTLEAQTQGPGSMDNKKPKIITIASIKGGVGKSTSAIILATLLSKNNKVLLIDMDTQASITSYFYEKIEKLGINFTKFNIYEILKENVDIDSTIINVDNNLDLIPSYLTLHNFSEDKIEHKDFLLKTSLGTLYYKYDYIVIDTNPSLDVTLKNALLCSDYVIIPMTAEKWAVESLDLFNFFVRKLNLFLPIFLIITRFKKNRTHKTLFEILKTKDRFLGTISEREDLNRRIAENNNFDLNKDYIKEYENILEIFLKKI | soluble
18 | MAHHHHHHMGTLEAQTQGPGSMSVFSGFPASPPDAILNLTVLYNADTNPKKVNLGVGAYRDESGKPWILPAVKEAEAIISSDLSKYNKEYPPVAGFPLFLEAAQFLMFGKDSKAAQEGRIASCQSLSGTGSLHIGFEFLHLWMPKAEFYMPSTTWPNHYGIYDKVFNKLKVPYKEYTYLRKDGELEIDFSNTKKDIQSAPEKSIFLFHACAHNPSGIDFTEAQWKELLPIMKEKKHIAFFDSAYQGFATGSFEADAFAVRMFVDAGVEVLVAQSFSKNFGLYGERIGCLHVVHAGVEGSVEKNKALSAAMVSGMTLQIRKTWSMSAIHGAYIVQVIVHDKRLLQMFYDNVKEMSARIHRMRSLLHASLAKRKTPGPGSKGTWDHILTAIGMFTFTGLTPEHVDYLKEKWSIYLVKAGGRMSMCGLTESNCDYVAEAIHDAVTKLPFKK | soluble
